Experimental findings from patent US20250243269A1 (ICAHN SCHOOL OF MEDICINE AT MOUNT SINAI, published 2025) are described below.

For this data set, the target named is T1, human FSH (follicle stimulating hormone) (human, UniProt P01215 25-116; P01225 19-129).
T1 construct: also called purified human FSH; human FSH in PDB ID 4AY9
Put plainly: thermal shift assay (Sypro-Orange), antibody 1.5 µg/µL with or without human FSH 0.5 µg/µL. The procedure:
Next, 215 different anti-FSH antibody formulations comprising different combinations of salt, detergent and sugars were tested for thermal stability. The thermal shift assay used a fluorescent reporter, Sypro-Orange (Protein Thermal Shift Dye Kit, ThermoFisher, Catalog #4461146), to detect hydrophobic domains that are exposed following the heat-induced unfolding of globular proteins. anti-FSH antibodies (1.5 μg/μL), either in a test formulation or in PBS, were incubated with or without human FSH (0.5 μg/μL) at room temperature for 30 minutes, with fluorescence captured sequentially at 0.3° C. increments using a StepOne Plus Thermocycler (Applied Biosystems). Tm was calculated based on the inflection point of the melt curve, and thermal shift was derived from ΔTₘ=TₘA−TₘB.
This testing yielded an anti-FSH antibody formulation comprising a stock solution of 2 mg/mL in 20 mM phosphate, 0.001% (v/v) Tween-20, 1 mM NaCl, and 260 mM sucrose (pH=6.58). […] The binding of formulated anti-FSH antibodies to purified human FSH was tested. A ΔTₘ of 3.1° C. of the Fab, and not the Fc region, established greater thermal stability due to FSH binding (FIG. 8C).

T1 sequence (P01215 25-116, chain 1 of 2): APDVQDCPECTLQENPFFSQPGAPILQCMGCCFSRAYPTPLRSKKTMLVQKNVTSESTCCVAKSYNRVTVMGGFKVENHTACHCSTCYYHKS
T1 sequence (P01225 19-129, chain 2 of 2): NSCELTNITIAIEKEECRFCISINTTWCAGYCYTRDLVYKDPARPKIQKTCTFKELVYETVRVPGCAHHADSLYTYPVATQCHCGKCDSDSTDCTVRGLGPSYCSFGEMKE

B1: humanized monoclonal anti-FSH antibody Hu6 (antibody, V domains shown)
VH: QVQLQESGPGLVKPSQTLSLTCTVSGFSITSDYAWNWIRQPPGKGLEWIGSIFSSGSINYNPSLKSRVTISRDTSKNQFSLKLSSVTAADTAVYYCARGGTGTDYWGQGTLVTVSS
VL: DIQMTQSPSSLSASVGDRVTITCRASQDISNYLSWYQQKPGKAIKLLIYYTSRLHSGVPSRFSGSGSGTDYTLTISSLQPEDFATYFCQQGHTLPPTFGGGTKVEIK
notes: also called MS-Hu6; formulated anti-FSH antibodies
For the protein B1, the “ΔTm of the Fab region on FSH binding” value was 3.1 °C.
